The values below come from patent US20230287125A1 (LEPU BIOPHARMA, published 2023).

Assay [1] has as its target T1, human PD-L1-Fc protein (human, UniProt Q9NZQ7 19-238).
T1 construct: coating antigen of the ELISAs; also called rhPD-L1-Fc; not shown: Fc
In words: ELISA, antibody titrated on coated human PD-L1-Fc, OD 450nm; lower right panel (with Hu67F3G7-19 to -22). On the procedure: (§1) To evaluate antigen binding activity, the humanized antibodies were subjected to ELISA test. Briefly, microtiter plates were coated with human PD-L1-Fc protein at 0.5 μg/ml in PBS, 100 μl/well at 4° C. overnight, then blocked with 200 μl/well of 1% BSA. Three-fold dilutions of humanized antibodies starting from 10 μg/ml were added to each well and incubated for 1 hour at 37° C. The plates were washed with PBS/Tween and then incubated with mouse-anti-human IgG Fab antibody conjugated with Horse Radish Peroxidase (HRP) for 1 hour at 37° C. After washing, the plates were developed with TMB substrate and analyzed by spectrophotometer at OD 450 nm.
For orientation: ELISA stands for enzyme-linked immunosorbent assay.

Assay [2] concerns the target T1, human PD-L1-Fc protein. In words: receptor blocking ELISA: coated human PD-L1-Fc, blocked ligand biotin-labeled human PD-1-Fc (Bio-PD1), OD 450nm; panel with Hu67F3G7-22 [cont'd]. The procedure: (§2) Briefly, microtiter plates were coated with human PD-L1-Fc protein at 0.5 μg/ml in PBS, 100 μl/well at 4° C. overnight, then blocked with 150 μl/well of 1% BSA at 37° C. for 2 hours. […] The plates were washed with PBS/Tween and then incubated with Streptavidin-HRP for 10 mins at 37° C. After washing, the plates were developed with TMB substrate and analyzed by spectrophotometer at OD 450 nm.

Assay [3] has as its target T1, human PD-L1-Fc protein. Briefly: ELISA, antibody titrated on coated human PD-L1-Fc, OD 450nm; upper right panel (with Hu67F3G7-7 to -12). On the procedure: as §1
In assay [4] the target is cynomolgus PD-L1 protein (cynomolgus, UniProt G7PSE7 19-238). Briefly: ELISA, coated cynomolgus PD-L1.
Assay [5] concerns the target T1, human PD-L1-Fc protein. Briefly: competition ELISA, coated human PD-L1-Fc, biotin-labeled human PD-1-Fc as competitor. The procedure:
Briefly, microtiter plates were coated with human PD-L1-Fc protein at 0.5 μg/ml in PBS, 100 μl/well at 4° C. overnight, then blocked with 150 μl/well of 1% BSA. […] The plates were washed with PBS/Tween and then incubated with Streptavidin-HRP for 10 mins at 37° C. After washing, the plates were developed with TMB substrate and analyzed by spectrophotometer at OD 450 nm.

In assay [6] the target is T1, human PD-L1-Fc protein. In words: ELISA, antibody titrated on coated human PD-L1-Fc, OD 450nm; upper left panel (with Hu67F3G7-1 to -6). On the procedure: as §1
Assay [7] concerns the target T1, human PD-L1-Fc protein. Briefly: receptor blocking ELISA: coated human PD-L1-Fc, blocked ligand biotin-labeled human PD-1-Fc (Bio-PD1), OD 450nm; upper right panel (with Hu67F3G7-3). The procedure:
as §2

Assay [8] addresses T1, human PD-L1-Fc protein. In words: receptor blocking ELISA: coated human PD-L1-Fc, blocked ligand biotin-labeled human CD80-Fc (Bio-CD80), OD 450nm; panel with Hu67F3G7-22 [cont'd]. The procedure: as §2
For assay [9], the target named is T1, human PD-L1-Fc protein. In words: receptor blocking ELISA: coated human PD-L1-Fc, blocked ligand biotin-labeled human CD80-Fc (Bio-CD80), OD 450nm; upper right panel (with Hu67F3G7-3). The procedure:
as §2

A word on the EC50: it is the midpoint of the concentration-response curve. A low value points to higher potency in that assay. The IC50 is the concentration that inhibits the measured activity by half. A lower IC50 goes with higher potency.

T1 sequence (Q9NZQ7 19-238 limits assumed): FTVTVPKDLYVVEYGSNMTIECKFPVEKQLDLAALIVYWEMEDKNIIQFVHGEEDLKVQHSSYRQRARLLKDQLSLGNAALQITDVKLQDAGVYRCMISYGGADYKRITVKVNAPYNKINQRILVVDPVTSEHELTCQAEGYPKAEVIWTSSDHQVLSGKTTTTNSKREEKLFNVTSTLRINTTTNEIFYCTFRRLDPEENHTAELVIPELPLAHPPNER
cynomolgus PD-L1 protein, sequence (G7PSE7 entry or part of it): as the sequence (Q9NZQ7 19-238 limits assumed) above, with A33T, A34S, S62N, R68Q, Q82R, F173L, T185A, T192I, H215L counted along it

B1: 67F3G7 chimeric mAb (antibody, V domains shown)
VH: QVKLLQSGAALVKPGASVKMSCKASGYIFTDFWVSWVKQSHEKSLEWIGEIYPNSGVSRYNEKFKGRATMTVDKSTSTAYLELSRLTSEDSAIYYCTKYFGYTYWFGYWGQGTLVTVSS
VL: DTVLTQSPALAVSLGQRITISCRASKSVSTYMHWYQQRSGLQPKLLIYSASHLESGVPSRFSGSGSGTDFTLTIDPVEADDIANYYCQQSNELPVTFGSGTKLEIK
notes: chimeric mAb of the hybridoma clone; also called 67F3G7-chimera
B1: the EC50 in assay [1] worked out at 0.0147 µg/mL; in [3], 0.0129 µg/mL; in assay [4] it was 0.0068 µg/mL; in assay [6], 0.0141 µg/mL. Further, the IC50 was 0.141 µg/mL in assay [2]; 0.14 µg/mL in assay [5]; 0.136 µg/mL in assay [7]; 0.293 µg/mL in [8]; 0.289 µg/mL in assay [9].
